According to publication PMC5909953 (Current biology : CB, 2017):

Target: the molecule itself
Experiment: single molecule photobleaching

B1: Kif15-FL-GFP-His6 (natural protein, human, UniProt Q9NS87 1-1388, looked up)
chain: MAPGCKTELRSVTNGQSNQPSNEGDAIKVFVRIRPPAERSGSADGEQNLCLSVLSSTSLRLHSNPEPKTFTFDHVADVDTTQESVFATVAKSIVESCMSGYNGTIFAYGQTGSGKTFTMMGPSESDNFSHNLRGVIPRSFEYLFSLIDREKEKAGAGKSFLCKCSFIEIYNEQIYDLLDSASAGLYLREHIKKGVFVVGAVEQVVTSAAEAYQVLSGGWRNRRVASTSMNRESSRSHAVFTITIESMEKSNEIVNIRTSLLNLVDLAGSERQKDTHAEGMRLKEAGNINRSLSCLGQVITALVDVGNGKQRHVCYRDSKLTFLLRDSLGGNAKTAIIANVHPGSRCFGETLSTLNFAQRAKLIKNKAVVNEDTQGNVSQLQAEVKRLKEQLAELASGQTPPESFLTRDKKKTNYMEYFQEAMLFFKKSEQEKKSLIEKVTQLEDLTLKKEKFIQSNKMIVKFREDQIIRLEKLHKESRGGFLPEEQDRLLSELRNEIQTLREQIEHHPRVAKYAMENHSLREENRRLRLLEPVKRAQEMDAQTIAKLEKAFSEISGMEKSDKNQQGFSPKAQKEPCLFANTEKLKAQLLQIQTELNNSKQEYEEFKELTRKRQLELESELQSLQKANLNLENLLEATKACKRQEVSQLNKIHAETLKIITTPTKAYQLHSRPVPKLSPEMGSFGSLYTQNSSILDNDILNEPVPPEMNEQAFEAISEELRTVQEQMSALQAKLDEEEHKNLKLQQHVDKLEHHSTQMQELFSSERIDWTKQQEELLSQLNVLEKQLQETQTKNDFLKSEVHDLRVVLHSADKELSSVKLEYSSFKTNQEKEFNKLSERHMHVQLQLDNLRLENEKLLESKACLQDSYDNLQEIMKFEIDQLSRNLQNFKKENETLKSDLNNLMELLEAEKERNNKLSLQFEEDKENSSKEILKVLEAVRQEKQKETAKCEQQMAKVQKLEESLLATEKVISSLEKSRDSDKKVVADLMNQIQELRTSVCEKTETIDTLKQELKDINCKYNSALVDREESRVLIKKQEVDILDLKETLRLRILSEDIERDMLCEDLAHATEQLNMLTEASKKHSGLLQSAQEELTKKEALIQELQHKLNQKKEEVEQKKNEYNFKMRQLEHVMDSAAEDPQSPKTPPHFQTHLAKLLETQEQEIEDGRASKTSLEHLVTKLNEDREVKNAEILRMKEQLREMENLRLESQQLIEKNWLLQGQLDDIKRQKENSDQNHPDNQQLKNEQEESIKERLAKSKIVEEMLKMKADLEEVQSALYNKEMECLRMTDEVERTQTLESKAFQEKEQLRSKLEEMYEERERTSQEMEMLRKQVECLAEENGKLVGHQNLHQKIQYVVRLKKENVRLAEETEKLRAENVFLKEKKRSES
stoichiometry N: 2
